In one assay the target is T1, recombinant human GDF-11 (human, UniProt O95390 299-407).
T1 sequence (looked up): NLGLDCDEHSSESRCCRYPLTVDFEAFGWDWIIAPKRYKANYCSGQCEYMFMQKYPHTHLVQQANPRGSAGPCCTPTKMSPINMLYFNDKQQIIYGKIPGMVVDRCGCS
The assay can be described thus: cell-based or functional assay.

Assay [1] concerns the target T2, human mature myostatin (dimeric form) (human, UniProt O14793 267-375).
T2 sequence: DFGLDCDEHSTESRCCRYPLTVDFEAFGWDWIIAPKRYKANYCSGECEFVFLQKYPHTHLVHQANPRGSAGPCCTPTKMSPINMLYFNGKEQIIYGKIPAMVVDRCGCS
Briefly: cell-based or functional assay.

The target in assay [2] is T2, human mature myostatin (dimeric form). The assay can be described thus: KINEXA, calculated as KD x kon. As to the method:
(§1) Binding affinity measurements for full-length monoclonal antibodies of the invention are determined using a Sapidyne KINEXA assay. NHS-activated fast-flow sepharose beads (GE Healthcare) are pre-coated with […] and blocked with 10 mg/ml BSA in 1 M Tris-HCl, pH 8.0. Then 2 pM, 4 pM, 40 pM of an antibody of the invention (e.g., 3-74/C1E4) is incubated with various concentration (e.g., 2.4 pM to 10 nM, serial dilutions) of myostatin in running buffer (PBS, 0.005% (v/v) Tween-20 and 1 mg/ml ovalbumin) for 10 hours at room temperature. […] The amount of bead-bound antibody is then quantified by passing a solution of fluorescent (Cy5) labeled goat ant-human Fc antibody (Jackson Immuno Research) diluted 1:4000 in running buffer over the beads. The measured fluorescence signal is proportional to the concentration of free antibody at equilibrium. Each concentration of myostatin is measured in duplicate. […]
(§2) The association rate constant (kₒₙ) for GDF-8 binding is also determined using a Sapidyne KINEXA assay. […] The dissociation rate constant (koff) is calculated using the expression koff=KD×kₒₙ. Full-length monoclonal antibody 3-74/C1E4 (operably linked to an IgG₄ Fc region) was measured using the described assay, the results obtained are listed below in Table 3.

Assay [3] shares this target. Briefly: KINEXA kinetic assay, 2 pM antibody mixed with 20 pM GDF-8. As to the method:
as §1, §2

The target is the same in assay [4]. Briefly: KINEXA equilibrium assay, antibody and myostatin in solution, room temperature. As for the experimental part: Binding affinity measurements for full-length monoclonal antibodies of the invention are determined using a Sapidyne KINEXA assay. NHS-activated fast-flow sepharose beads (GE Healthcare) are pre-coated with […] and blocked with 10 mg/ml BSA in 1 M Tris-HCl, pH 8.0. Then 2 pM, 4 pM, 40 pM of an antibody of the invention (e.g., 3-74/C1E4) is incubated with various concentration (e.g., 2.4 pM to 10 nM, serial dilutions) of myostatin in running buffer (PBS, 0.005% (v/v) Tween-20 and 1 mg/ml ovalbumin) for 10 hours at room temperature. To determine the free antibody present at equilibrium, each sample is passed through the myostatin-coated beads. The amount of bead-bound antibody is then quantified by passing a solution of fluorescent (Cy5) labeled goat ant-human Fc antibody (Jackson Immuno Research) diluted 1:4000 in running buffer over the beads. The measured fluorescence signal is proportional to the concentration of free antibody at equilibrium. Each concentration of myostatin is measured in duplicate. The equilibrium dissociation constant (KD) is obtained from non-linear regression of the competition curves using a multiple-curve, one-site homogeneous binding model (KINEXA software).

B1: Fab 3-74/C1E4 (Fab, V domains shown)
VH: EVQLVESGGGLVQPGGSLRLSCAASGLTFSRYPMSWVRQAPGKGLEWVSAITSSGGSTYYSDTVKGRFTISRDNAKNTLYLQMNSLRAEDTAVYYCARLPDYWGQGTLVTVSS
VL: EIVLTQSPGTLSLSPGERATLSCRASSSVSSSYLHWYAAKPGQAPRLLIYSTSNLVAGIPDRFSGSGSGTDFTLTISRLEPEDFAVYYCQHYSGYHFTFGGGTKVEIK
As for B1, in the assay with recombinant human GDF-11, the “IC50 GDF11 (GDF-11/SBE luciferase reporter assay, 293E cells)” value amounted to 4 nM. The “IC50 GDF8 (myostatin/SBE luciferase reporter assay, 293E cells)” value in assay [1] was 1 nM.

B2: Full-length monoclonal antibody 3-74/C1E4 (operably linked to an IgG4 Fc region) (antibody, V domains shown)
VH: EVQLVESGGGLVQPGGSLRLSCAASGLTFSRYPMSWVRQAPGKGLEWVSAITSSGGSTYYSDTVKGRFTISRDNAKNTLYLQMNSLRAEDTAVYYCARLPDYWGQGTLVTVSS
VL: EIVLTQSPGTLSLSPGERATLSCRASSSVSSSYLHWYAAKPGQAPRLLIYSTSNLVAGIPDRFSGSGSGTDFTLTISRLEPEDFAVYYCQHYSGYHFTFGGGTKVEIK
notes: also called Mab 3-74/C1E4
As to B2, the koff in assay [2] was 2.08e-06 s⁻¹. In assay [3], this molecule displayed a kon of 1.49e+06 M⁻¹ s⁻¹. The molecule also gave a Kd in assay [4] of 0.00139 nM.

(Values after patent US20090131638A1 (Eli Lilly, published 2009).)
